Here are results for 30 molecules from US20030148958A1 (PROCTER AND GAMBLE, published 2003).

Positions count from the first letter of the chain named. Ends that are not written are not given here.

Test [1] concerns the target T1, corticotropin releasing factor 2 receptor.
T1 sequence (Q13324 whole entry, species assumed, looked up): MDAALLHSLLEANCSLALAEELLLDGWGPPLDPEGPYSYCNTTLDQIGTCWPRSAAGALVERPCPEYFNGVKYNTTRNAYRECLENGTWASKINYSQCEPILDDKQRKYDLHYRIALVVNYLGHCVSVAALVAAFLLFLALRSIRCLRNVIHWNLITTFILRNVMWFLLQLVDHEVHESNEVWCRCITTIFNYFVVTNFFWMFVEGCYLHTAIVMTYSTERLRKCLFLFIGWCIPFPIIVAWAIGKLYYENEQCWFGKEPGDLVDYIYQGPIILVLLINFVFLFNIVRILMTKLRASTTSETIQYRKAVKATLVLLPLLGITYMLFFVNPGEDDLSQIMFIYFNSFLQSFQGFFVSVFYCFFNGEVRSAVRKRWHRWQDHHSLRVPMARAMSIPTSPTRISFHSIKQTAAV
In words: cell-based or functional assay.

Test [2] concerns the target corticotropin releasing factor 1 receptor. In words: cell-based or functional assay.
For CRF1R Emax in this document: reference of the scale not given here.
For CRF2R Emax in this document: reference of the scale not given here.

B1: SEQ ID NO 101 (peptide)
peptide: SQEPPISLDLPLYLLREVLEMTKADQLAQQAHSNRKLLDIA-NH2
As for B1, in test [1], the “CRF2R EC50” value was 100 nM and the “CRF2R Emax” value is 6.95%. In addition, in test [2], the “CRF1R EC50” value turned out to be 100 nM and the “CRF1R Emax” value was 7.35%.

B2: SEQ ID NO 105 (peptide)
peptide: SQEPPISLDLPTQLLREVLEMTKADQLAQQAHSNRKLLDIA-NH2
For the molecule B2, in test [1], the “CRF2R EC50” value was 100 nM and the “CRF2R Emax” value was 9.15%. In addition, in test [2], the “CRF1R EC50” value is 100 nM and the “CRF1R Emax” value was 5.2%.

B3: SEQ ID NO 88 (peptide)
peptide: SQEPPISLDLTFGLLREVLEMTKADQLAQQAHSNRKLLDIA-NH2
On to B3, for which, in test [1], the “CRF2R EC50” value is 100 nM and the “CRF2R Emax” value was determined as 12.6%. In test [2], the “CRF1R EC50” value was determined as 100 nM and the “CRF1R Emax” value is 11.2%.

B4: SEQ ID NO 90 (peptide)
peptide: SQEPPISLDLPLGLLREVLEMTKADQLAQQAHSNRKLLDIA-NH2
In the case of B4, in test [1], the “CRF2R EC50” value was 100 nM and the “CRF2R Emax” value worked out at 12.2%. In test [2], the “CRF1R EC50” value turned out to be 100 nM and the “CRF1R Emax” value turned out to be 4%.

B5: SEQ ID NO 91 (peptide)
peptide: SQEPPISLDLPFQLLREVLEMTKADQLAQQAHSNRKLLDIA-NH2
As for B5, in test [1], the “CRF2R EC50” value worked out at 100 nM and the “CRF2R Emax” value turned out to be 7.1%. Also, in test [2], the “CRF1R EC50” value stood at 100 nM and the “CRF1R Emax” value came out at 4%.

B6: SEQ ID NO 95 (peptide)
peptide: SQEPPISLDLPLQLLREVLEMTKADQLAQQAHSNRKLLDIA-NH2
Consider B6, for which, in test [1], the “CRF2R EC50” value is 100 nM and the “CRF2R Emax” value was determined as 8.25%. In test [2], the “CRF1R EC50” value amounted to 100 nM and the “CRF1R Emax” value came out at 5.55%.

B7: SEQ ID NO 110 (peptide)
peptide: IVLSLDVPIGLLQILLEQAKQRAAREQATTNARILARV-NH2
Regarding B7, in test [1], the “CRF2R EC50” value came out at 11 nM and the “CRF2R Emax” value stood at 100%. Moreover, in test [2], the “CRF1R EC50” value is more than 100 nM and the “CRF1R Emax” value was 9%.

B8: SEQ ID NO 87 (peptide)
peptide: SQEPPISLDLTIHLLREVLEMTKADQLAQQAHSNRKLLDIA-NH2
For the molecule B8, in test [1], the “CRF2R EC50” value came to 100 nM and the “CRF2R Emax” value came out at 14.7%. Also, in test [2], the “CRF1R EC50” value was 100 nM and the “CRF1R Emax” value amounted to 5.3%.

B9: SEQ ID NO 109 (peptide)
peptide: IVLSLDVPIGLLQILLEQAKARAAREQATTNARILARV-NH2
Regarding B9, in test [1], the “CRF2R EC50” value was determined as 11.8 nM. Besides, in test [2], the “CRF1R EC50” value came to 100 nM.

B10: SEQ ID NO 99 (peptide)
peptide: SQEPPISLDLPTHLLREVLEMTKADQLAQQAHSNRKLLDIA-NH2
Turning to B10, in test [1], the “CRF2R EC50” value was 100 nM and the “CRF2R Emax” value stood at 4.35%. Further, in test [2], the “CRF1R EC50” value stood at 100 nM and the “CRF1R Emax” value turned out to be 4.35%.

B11: SEQ ID NO 97 (peptide)
peptide: SQEPPISLDLPFELLREVLEMTKADQLAQQAHSNRKLLDIA-NH2
As to B11, in test [1], the “CRF2R EC50” value was 100 nM and the “CRF2R Emax” value turned out to be 7.6%. Also, in test [2], the “CRF1R EC50” value amounted to 100 nM and the “CRF1R Emax” value worked out at 4.25%.

B12: SEQ ID NO 86 (peptide)
peptide: SQEPPISLDLTIGLLREVLEMTKADQLAQQAHSNRKLLDIA-NH2
Regarding B12, in test [1], the “CRF2R EC50” value amounted to 100 nM and the “CRF2R Emax” value is 8.1%. In test [2], the “CRF1R EC50” value came to 100 nM and the “CRF1R Emax” value turned out to be 4.6%.

B13: SEQ ID NO 111 (peptide)
peptide: IVLSLDVPIGLLQILLEQERQRAAREQATTNARILARV-NH2
With B13, in test [1], the “CRF2R EC50” value amounted to 10.9 nM and the “CRF2R Emax” value came to 99%. For the same molecule, in test [2], the “CRF1R EC50” value is more than 100 nM and the “CRF1R Emax” value is 9%.

B14: SEQ ID NO 108 (peptide)
peptide: IVLSLDVPIGLLQILLEQTKADAAREQATTNARILARV-NH2
With B14, in test [1], the “CRF2R EC50” value turned out to be 79 nM and the “CRF2R Emax” value came to 97%. For the same molecule, in test [2], the “CRF1R EC50” value is more than 100 nM and the “CRF1R Emax” value was 3%.

B15: SEQ ID NO 5 (peptide)
peptide: IVLSLDVPGPLLQILLEQTKQEAAREQATTNARILARV-NH2
B15: in test [1], the “CRF2R EC50” value is 100 nM and the “CRF2R Emax” value was determined as 12%. In addition, in test [2], the “CRF1R EC50” value stood at 100 nM and the “CRF1R Emax” value was 9%.

B16: SEQ ID NO 106 (peptide)
peptide: SQEPPISLDLPTYLLREVLEMTKADQLAQQAHSNRKLLDIA-NH2
In the case of B16, in test [1], the “CRF2R EC50” value was 100 nM and the “CRF2R Emax” value amounted to 6.1%. For the same molecule, in test [2], the “CRF1R EC50” value is 100 nM and the “CRF1R Emax” value was determined as 4.8%.

B17: SEQ ID NO 9 (peptide)
peptide: IVLSLDVPIGLLQILLEQARARAAREQATTQARILARV-NH2
As for B17, in test [1], the “CRF2R EC50” value was 100 nM and the “CRF2R Emax” value stood at 34%. In test [2], the “CRF1R EC50” value is 100 nM and the “CRF1R Emax” value came to 10%.

B18: SEQ ID NO 92 (peptide)
peptide: SQEPPISLDLPTELLREVLEMTKADQLAQQAHSNRKIIDIA-NH2
Regarding B18, in test [1], the “CRF2R EC50” value turned out to be 100 nM and the “CRF2R Emax” value stood at 15.8%. In addition, in test [2], the “CRF1R EC50” value is 100 nM and the “CRF1R Emax” value was 4.6%.

B19: SEQ ID NO 84 (peptide)
peptide: ZGPPISIDLPFQLLRKMIEIEKQEKEKQQAANNRLLLDTI
modifications: C-terminal amide
On to B19, for which, in test [1], the “CRF2R EC50” value amounted to 1.77 nM and the “CRF2R Emax” value was found to be 100%. Moreover, in test [2], the “CRF1R EC50” value is 82.2 nM and the “CRF1R Emax” value amounted to 99%.

B20: SEQ ID NO 85 (peptide)
peptide: B19 peptide with Q12Y
modifications: C-terminal amide
Consider B20, for which, in test [1], the “CRF2R EC50” value worked out at 2.34 nM and the “CRF2R Emax” value was found to be 100%. Moreover, in test [2], the “CRF1R EC50” value came out at 11 nM and the “CRF1R Emax” value turned out to be 84%.

B21: SEQ ID NO 93 (peptide)
peptide: SQEPPISLDLPIGLLREVLEMTKADQLAQQAHSNRKLLDIA-NH2
Regarding B21, in test [1], the “CRF2R EC50” value was 100 nM and the “CRF2R Emax” value is 6.4%. Besides, in test [2], the “CRF1R EC50” value was determined as 100 nM and the “CRF1R Emax” value worked out at 5%.

B22: SEQ ID NO 104 (peptide)
peptide: SQEPPISLDLPFHLLREVLEMTKADQLAQQAHSNRKLLDIA-NH2
B22: in test [1], the “CRF2R EC50” value was found to be 100 nM and the “CRF2R Emax” value was 4.5%. In test [2], the “CRF1R EC50” value worked out at 100 nM and the “CRF1R Emax” value amounted to 11.1%.

B23: SEQ ID NO 102 (peptide)
peptide: SQEPPISLDLPLHLLREVLEMTKADQLAQQAHSNRKLLDIA-NH2
Take B23: in test [1], the “CRF2R EC50” value was 100 nM and the “CRF2R Emax” value is 13.5%. Besides, in test [2], the “CRF1R EC50” value stood at 100 nM and the “CRF1R Emax” value came to 7.8%.

B24: SEQ ID NO 100 (peptide)
peptide: SQEPPISLDLPIQLLREVLEMTKADQLAQQAHSNRKLLDIA-NH2
For the molecule B24, in test [1], the “CRF2R EC50” value worked out at 100 nM and the “CRF2R Emax” value came to 9.85%. Moreover, in test [2], the “CRF1R EC50” value was 100 nM and the “CRF1R Emax” value was 6.25%.

B25: SEQ ID NO 98 (peptide)
peptide: SQEPPISLDLPTGLLREVLEMTKADQLAQQAHSNRKLLDIA-NH2
As for B25, in test [1], the “CRF2R EC50” value amounted to 100 nM and the “CRF2R Emax” value amounted to 5.5%. In addition, in test [2], the “CRF1R EC50” value amounted to 100 nM and the “CRF1R Emax” value amounted to 4%.

B26: SEQ ID NO 7 (peptide)
peptide: SQEIVLSLDVPIGLLREVLEMTKADQLAQQAHSNRKLLDIA-NH2
As to B26, in test [1], the “CRF2R EC50” value worked out at 100 nM and the “CRF2R Emax” value was determined as 19%. In test [2], the “CRF1R EC50” value stood at 100 nM and the “CRF1R Emax” value was 4%.

B27: SEQ ID NO 103 (peptide)
peptide: SQEPPISLDLPFGLLREVLEMTKADQLAQQAHSNRKLLDIA-NH2
With B27, in test [1], the “CRF2R EC50” value stood at 100 nM and the “CRF2R Emax” value was 4.85%. In addition, in test [2], the “CRF1R EC50” value amounted to 100 nM and the “CRF1R Emax” value was found to be 5.75%.

B28: SEQ ID NO 96 (peptide)
peptide: SQEPPISLDLPFYLLREVLEMTKADQLAQQAHSNRKLLDIA-NH2
With B28, in test [1], the “CRF2R EC50” value is 100 nM and the “CRF2R Emax” value turned out to be 12.5%. Also, in test [2], the “CRF1R EC50” value worked out at 100 nM and the “CRF1R Emax” value was 16.3%.

B29: SEQ ID NO 94 (peptide)
peptide: SQEPPISLDLPIHLLREVLEMTKADQLAQQAHSNRKLLDIA-NH2
Take B29: in test [1], the “CRF2R EC50” value is 100 nM and the “CRF2R Emax” value came to 6.15%. In addition, in test [2], the “CRF1R EC50” value stood at 100 nM and the “CRF1R Emax” value turned out to be 7.3%.

B30: SEQ ID NO 112 (peptide)
peptide: IVLSLDVPIGLLQILLEQAKAEAAREQATTNARILARV-NH2
Take B30: in test [1], the “CRF2R EC50” value turned out to be 12.3 nM and the “CRF2R Emax” value is 100%. Also, in test [2], the “CRF1R EC50” value was more than 100 nM and the “CRF1R Emax” value came out at 10%.
